Test [1] addresses T1, (1-43)::FLAG::muCDH19(44-323)::raCDH19(324-327)::muCDH19(328-770), on 293T cells (mouse/rat chimera).
T1 construct: Entry holds leader (1-43), Flag tag and CDH19 part; leader left out; also called Ra EC3c
T1 chain: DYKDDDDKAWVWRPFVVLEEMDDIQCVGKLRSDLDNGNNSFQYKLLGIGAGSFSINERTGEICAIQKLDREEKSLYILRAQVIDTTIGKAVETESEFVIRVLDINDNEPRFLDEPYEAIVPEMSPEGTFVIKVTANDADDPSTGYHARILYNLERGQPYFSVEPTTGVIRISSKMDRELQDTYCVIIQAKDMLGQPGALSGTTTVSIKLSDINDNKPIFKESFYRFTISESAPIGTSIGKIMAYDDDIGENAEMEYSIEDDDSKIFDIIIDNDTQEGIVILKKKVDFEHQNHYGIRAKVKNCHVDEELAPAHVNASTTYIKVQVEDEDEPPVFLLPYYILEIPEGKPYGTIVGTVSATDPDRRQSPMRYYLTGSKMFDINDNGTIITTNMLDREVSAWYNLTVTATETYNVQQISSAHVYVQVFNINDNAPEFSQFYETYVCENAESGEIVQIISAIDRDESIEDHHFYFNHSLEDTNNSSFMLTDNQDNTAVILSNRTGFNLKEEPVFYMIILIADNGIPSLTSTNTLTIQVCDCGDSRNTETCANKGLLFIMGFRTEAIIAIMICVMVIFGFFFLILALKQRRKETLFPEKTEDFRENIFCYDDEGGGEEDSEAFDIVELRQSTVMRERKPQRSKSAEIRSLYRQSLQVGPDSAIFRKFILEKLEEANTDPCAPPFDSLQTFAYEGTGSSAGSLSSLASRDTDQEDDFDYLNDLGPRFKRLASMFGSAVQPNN
In words: FACS, transfected 293T.

The target in a further test is T2, Human Cadherin-19 (human, UniProt Q9H159 44-772).
T2 construct: Residues 1-43 are named as the native leader in the construct designations and are left out; also called human CDH19; huCDH19
In words: FACS, endogenous CDH19 on CHL-1/Colo699. (In general: In flow cytometry, cells or beads pass a laser one at a time.)

In test [2] the target is T3, muCDH19(44-461)::huCDH19(464-772), Flag-tagged, on 293T cells (human/mouse chimera).
T3 construct: also called Hu EC5; C137915
T3 chain: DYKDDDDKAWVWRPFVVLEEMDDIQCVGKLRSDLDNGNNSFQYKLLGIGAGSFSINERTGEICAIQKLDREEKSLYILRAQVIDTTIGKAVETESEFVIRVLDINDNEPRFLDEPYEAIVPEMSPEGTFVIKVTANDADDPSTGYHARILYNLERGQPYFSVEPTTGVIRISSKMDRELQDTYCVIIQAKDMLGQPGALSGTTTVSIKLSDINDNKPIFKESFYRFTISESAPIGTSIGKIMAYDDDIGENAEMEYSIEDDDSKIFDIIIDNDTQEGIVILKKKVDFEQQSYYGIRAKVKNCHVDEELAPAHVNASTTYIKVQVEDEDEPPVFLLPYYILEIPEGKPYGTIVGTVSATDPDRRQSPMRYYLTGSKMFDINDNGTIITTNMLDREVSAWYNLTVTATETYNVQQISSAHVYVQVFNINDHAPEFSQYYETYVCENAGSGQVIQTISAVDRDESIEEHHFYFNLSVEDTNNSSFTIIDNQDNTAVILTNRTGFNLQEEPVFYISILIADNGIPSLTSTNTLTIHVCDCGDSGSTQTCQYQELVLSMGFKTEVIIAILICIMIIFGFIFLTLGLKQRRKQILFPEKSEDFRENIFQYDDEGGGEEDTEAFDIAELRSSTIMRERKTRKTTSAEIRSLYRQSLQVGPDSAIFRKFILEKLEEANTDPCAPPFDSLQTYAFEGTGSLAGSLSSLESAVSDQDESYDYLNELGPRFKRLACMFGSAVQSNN
Put plainly: FACS, transfected 293T.
Excerpt: (§1) The experiment included assaying the anti-CDH19 antibodies against mouse Cadherin19 to determine suitability for binning on these human/mouse chimeras.

Test [3] addresses T4, muCDH19(44-139)::huCDH19(142-249)::muCDH19(248-770), Flag-tagged, on 293T cells (human/mouse chimera).
T4 construct: also called Hu EC2; C137913
T4 chain: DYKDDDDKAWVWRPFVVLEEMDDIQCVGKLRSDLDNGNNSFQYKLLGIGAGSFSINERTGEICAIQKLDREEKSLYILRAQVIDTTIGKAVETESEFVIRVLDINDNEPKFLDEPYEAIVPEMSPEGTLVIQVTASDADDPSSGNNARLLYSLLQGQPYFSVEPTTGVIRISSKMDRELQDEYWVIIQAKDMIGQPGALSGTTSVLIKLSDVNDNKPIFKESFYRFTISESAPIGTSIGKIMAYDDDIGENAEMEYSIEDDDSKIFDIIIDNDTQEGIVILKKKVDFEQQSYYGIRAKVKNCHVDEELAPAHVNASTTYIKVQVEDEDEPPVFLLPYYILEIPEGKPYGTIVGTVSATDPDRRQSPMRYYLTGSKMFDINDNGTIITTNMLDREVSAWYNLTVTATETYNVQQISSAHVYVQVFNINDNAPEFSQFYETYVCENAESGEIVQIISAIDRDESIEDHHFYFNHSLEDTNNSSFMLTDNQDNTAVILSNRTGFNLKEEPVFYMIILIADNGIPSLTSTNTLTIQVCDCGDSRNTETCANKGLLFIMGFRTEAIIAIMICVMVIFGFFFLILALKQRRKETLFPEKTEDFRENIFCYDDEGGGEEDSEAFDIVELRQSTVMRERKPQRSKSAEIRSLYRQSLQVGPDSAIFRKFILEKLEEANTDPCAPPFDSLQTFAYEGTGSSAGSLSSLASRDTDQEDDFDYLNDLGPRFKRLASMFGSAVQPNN
In words: FACS, transfected 293T.
Excerpt: as §1

Description for Human Cadherin-19: FACS binding assays were performed to evaluate the binding of the anti-Cadherin-19 receptor specific antibodies to endogenous Cadherin-19 receptor expressed on the CHL-1 tumor cell lines.
FACs assays were performed by incubating hybridoma supernatants with 10,000 to 25,000 cells in PBS/2% Fetal bovine serum/2 mM Calcium Chloride at 4° C. for one hour followed by two washes with PBS/2% Fetal bovine serum/2 mM Calcium Chloride. Cells were then treated with florochrome-labeled secondary antibodies at 4° C. followed by one wash. The cells were resuspended in 50 μl of PBS/2% FBS and antibody binding was analyzed using a FACSCalibur™ instrument.

B1: hu anti-<huCDH19> 4B10 VH::huIgG1z / 4B10 VL::huKLC (Ab ID 13590) (antibody, V domains shown)
VH: QVQLVESGGGVVQPGRSLRLSCAASGFTFSSYDMHWVRQAPGKGLEWVAVISYDGTNEYYADSVKGRFTISRDTSKNTLYLQMNSLRAEDTAVYYCARERYFDWSFDYWGQGTLVSVSS
VL: EIVLTQSPGTLSLSPGERATLSCRASQSVSNTYLAWYHQRPGQAPRLLIYGASSRATGIPDRFSGSGSGTDFALTISSLEPEDFAVYYCQQYSNSWTFGQGTKVEIKR
As for B1, the binding result in test [1] is listed as “binds”.

B2: hu anti-<huCDH19> 4A9 VH::huIgG1z / 4A9 VL::huLLC-C1 (Ab ID 13589) (antibody, V domains shown)
VH: QVQLQESGPGLVKPSETLSLTCTVSGGSISGYYWSWIRQPPGKGLEWFAYFSYSGSTNYNPSLKSRVTLSVDTSKNQFSLKLSSVTAADTAVYYCARNWAFHFDFWGQGTLVTVSS
VL: QSVLTQPPSVSGAPGQRVTISCTGSSSNIGTGYAVHWYQQFPGTAPKLLIYGNNNRPSGVPDRFSGSKSGTSASLAITGLQAEDEADYYCQSYDSRLSGWVFGGGTKLTVLG
notes: Recombinant fully human IgG1
As for B2, the binding result with Human Cadherin-19 is reported as “binds”.

B3: hu anti-<huCDH19> 26D1.1 VH::huIgG1z / 26D1.1 VL::huLLC-C2 (Ab ID 13882) (antibody, V domains shown)
VH: QVQLVQSGAEVKKPGASVKVSCKASRYTFTSYYMSWVRQAPGQGLEWMGIIHPSGGDTTYAQKFQGRVTMTGDTSTSTVYMELSSLRSEDTAVYYCARGGIKLWLHFDYWGQGTLVTVSS
VL: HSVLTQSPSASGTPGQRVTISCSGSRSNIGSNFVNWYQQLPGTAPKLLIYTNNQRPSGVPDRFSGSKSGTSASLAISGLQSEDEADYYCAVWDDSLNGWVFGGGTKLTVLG
Turning to B3, the binding result with Human Cadherin-19 is recorded as “binds”.

B4: anti-CDH19 antibody 2G6 (Ab ID 13588) (antibody, human IgG1, lambda, V domains shown)
VH: QVQLVESGGGVVQPGRSLRLSCAASGFTFSSYGMHWVRQAPGKGLEWVAFIWYDGSNKYYADSVKDRFTISRDNSKNTLYLQMKSLRAEDTAVYYCARRAGIIGTIGYYYGMDVWGQGTTVTVSS
VL: SYELTQPPSVSVSPGQTASITCSGDRLGEKYTCWYQQRPGQSPLLVIYQDTKRPSGIPERFSGSNSGNTATLTISGTQAMDEADYYCQAWDSSTVVFGGGTKLTVLG
As to B4, the binding result in test [1], in test [2] and in test [3] was “binds” in each case.

(Values after patent US20140322218A1 (Amgen, published 2014).)
